Measurements taken from PMC9259969, “Biophysical Screening Pipeline for Cryo-EM Grid Preparation of Membrane Proteins” (Frontiers in Molecular Biosciences, 2022).

Assays:
[1] = molecular target: the molecule itself; assay: mass photometry; 150 nM TolC in the presence of 0.003% DDM; controls with 0.03% and 0.003% DDM without protein
Q9Y6I3 = assay: mass photometry; hENTH at 100 nM in the presence of 200 µM PI(4,5)P2; Refeyn OneMP; control: buffer with 200 µM PI(4,5)P2; settings: other: mass photometry

Protein	binding result [1]	N with PI(4,5)P2 (Q9Y6I3)
TolC (natural protein, Escherichia coli, UniProt P02930 23-493, looked up, TolC, outer membrane protein of Escherichia coli; molecular weight of 161.7 kDa printed for the trimeric state; The protomer is written here; In DDM micelles in the assays; also called integral membrane protein TolC; source: E. coli C43(DE3)ΔAcrAB, solubilised in DDM, purified (HiTrap HP with imidazole elution, SEC)) ENLMQVYQQARLSNPELRKSAADRDAAFEKINEARSPLLPQLGLGADYTYSNGYRDANGINSNATSASLQLTQSIFDMSKWRALTLQEKAAGIQDVTYQTDQQTLILNTATAYFNVLNAIDVLSYTQAQKEAIYRQLDQTTQRFNVGLVAITDVQNARAQYDTVLANEVTARNNLDNAVEQLRQITGNYYPELAALNVENFKTDKPQPVNALLKEAEKRNLSLLQARLSQDLAREQIRQAQDGHLPTLDLTASTGISDTSYSGSKTRGAAGTQYDDSNMGQNKVGLSFSLPIYQGGMVNSQVKQAQYNFVGASEQLESAHRSVVQTVRSSFNNINASISSINAYKQAVVSAQSSLDAMEAGYSVGTRTIVDVLDATTTLYNAKQELANARYNYLINQLNIKSALGTLNEQDLLALNNALSKPVSTNPENVAPQTPEQNAIADGYAPDSPAPVVQQTSARTTTSNGHNPFRN	binds	–
Recombinant human ENTH domain from epsin-1 (hENTH) (protein) NIVHNYSEAEIKVREATSNDPWGPSSSLMSEIADLTYNVVAFSEIMSMIWKRLNDHGKNWRHVYKAMTLMEYLIKTGSERVSQQCKENMYAVQTLKDFQYVDRDGKDQGVNVREKAKQLVALLRDEDRLREER	–	corresponding to a hexamer of hENTH in the presence of 200 µM PI(4,5)P2
